Laboratory results published in patent publication US20260146107A1 (ALLIGATOR BIOSCIENCE, published 2026).

T1: CEACAM-8, recombinant (R&D Systems #9639-CM-050) (UniProt P31997 35-320)
T1 sequence (looked up): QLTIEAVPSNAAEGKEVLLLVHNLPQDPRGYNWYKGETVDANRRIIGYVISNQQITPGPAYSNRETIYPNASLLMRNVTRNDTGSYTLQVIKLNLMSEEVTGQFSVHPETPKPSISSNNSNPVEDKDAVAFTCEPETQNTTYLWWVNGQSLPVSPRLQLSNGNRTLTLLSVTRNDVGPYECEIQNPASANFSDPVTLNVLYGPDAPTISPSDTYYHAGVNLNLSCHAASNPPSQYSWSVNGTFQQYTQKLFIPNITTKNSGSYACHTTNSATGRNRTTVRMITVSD

T2: human CEACAM6, recombinant (R&D Systems #3934-CM-050) (human, UniProt P40199 35-320)
T2 construct: also called hCEACAM-6
T2 sequence (looked up): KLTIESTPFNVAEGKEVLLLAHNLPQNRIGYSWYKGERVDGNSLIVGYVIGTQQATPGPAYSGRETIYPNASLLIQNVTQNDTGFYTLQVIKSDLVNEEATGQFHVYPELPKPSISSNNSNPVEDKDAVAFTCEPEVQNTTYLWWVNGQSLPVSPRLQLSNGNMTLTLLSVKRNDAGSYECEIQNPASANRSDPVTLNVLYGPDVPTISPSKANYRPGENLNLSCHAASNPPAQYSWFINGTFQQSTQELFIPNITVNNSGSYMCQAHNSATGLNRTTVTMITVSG

T3: human CEACAM1, recombinant (R&D Systems #2244-CM-050) (human, UniProt P13688 35-428)
T3 construct: also called hCEACAM-1
T3 sequence (looked up): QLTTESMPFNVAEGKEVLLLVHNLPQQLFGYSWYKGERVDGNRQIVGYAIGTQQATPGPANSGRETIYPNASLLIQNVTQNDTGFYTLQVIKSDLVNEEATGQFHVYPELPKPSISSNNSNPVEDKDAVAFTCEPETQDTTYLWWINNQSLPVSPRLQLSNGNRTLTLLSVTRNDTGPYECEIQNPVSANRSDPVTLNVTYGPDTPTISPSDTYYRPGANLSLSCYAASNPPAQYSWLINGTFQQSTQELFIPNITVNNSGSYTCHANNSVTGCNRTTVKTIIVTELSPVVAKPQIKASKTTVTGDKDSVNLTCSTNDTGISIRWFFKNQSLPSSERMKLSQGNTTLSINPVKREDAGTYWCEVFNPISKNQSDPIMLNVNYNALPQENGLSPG

T4: human CEACAM1 expressed on CHO cells (human, UniProt P13688 35-526)
T4 construct: whole, on cells; also called CHO-CEACAM1; CEACAM1 on cells
T4 sequence (looked up): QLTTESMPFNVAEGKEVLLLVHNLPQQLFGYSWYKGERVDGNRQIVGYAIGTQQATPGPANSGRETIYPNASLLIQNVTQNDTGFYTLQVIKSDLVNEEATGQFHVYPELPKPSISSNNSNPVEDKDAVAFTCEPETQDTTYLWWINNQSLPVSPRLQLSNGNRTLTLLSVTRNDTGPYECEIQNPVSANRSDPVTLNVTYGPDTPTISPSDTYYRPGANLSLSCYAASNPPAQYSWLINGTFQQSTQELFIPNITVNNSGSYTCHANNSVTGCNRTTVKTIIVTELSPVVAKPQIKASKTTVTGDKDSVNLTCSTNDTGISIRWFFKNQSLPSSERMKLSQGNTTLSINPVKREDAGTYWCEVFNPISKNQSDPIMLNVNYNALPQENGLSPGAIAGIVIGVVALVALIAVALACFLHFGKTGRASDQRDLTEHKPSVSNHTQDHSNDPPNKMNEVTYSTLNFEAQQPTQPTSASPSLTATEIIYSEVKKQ

T5: human CEACAM5, recombinant (R&D Systems #4128-CM-050) (human, UniProt P06731 35-685)
T5 construct: Bought; coated in ELISA and used as monomeric analyte in Octet; also called hCEACAM-5; Human CEACAM5-His; not shown: His tag
T5 sequence (looked up): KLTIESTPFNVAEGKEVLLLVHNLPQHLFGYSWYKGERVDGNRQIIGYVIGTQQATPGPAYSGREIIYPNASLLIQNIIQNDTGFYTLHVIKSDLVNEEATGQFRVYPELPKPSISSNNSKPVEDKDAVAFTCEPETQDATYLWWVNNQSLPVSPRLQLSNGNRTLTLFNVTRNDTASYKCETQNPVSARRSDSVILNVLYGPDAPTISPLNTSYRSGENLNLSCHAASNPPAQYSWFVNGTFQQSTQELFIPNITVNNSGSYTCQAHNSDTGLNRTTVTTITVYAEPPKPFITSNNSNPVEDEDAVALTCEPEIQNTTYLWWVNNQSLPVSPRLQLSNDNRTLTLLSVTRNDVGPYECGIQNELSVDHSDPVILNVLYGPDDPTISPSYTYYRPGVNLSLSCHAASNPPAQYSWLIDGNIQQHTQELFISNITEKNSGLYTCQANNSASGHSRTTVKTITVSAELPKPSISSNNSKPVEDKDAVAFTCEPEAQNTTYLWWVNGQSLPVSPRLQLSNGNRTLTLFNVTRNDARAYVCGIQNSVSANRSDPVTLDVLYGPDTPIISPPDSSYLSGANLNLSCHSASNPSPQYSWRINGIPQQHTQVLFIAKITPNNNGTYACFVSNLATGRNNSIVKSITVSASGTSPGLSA


How the values were obtained:
[1] = molecular target: T1, CEACAM-8, recombinant (R&D Systems …); test: ELISA, cross-reactivity to other CEA family members
Method: (§1) 96-well plates were coated with 0.5 μg/mL antigen, hCEACAM-5 (4128-CM-050, R&D Systems), hCEACAM-1 (2244-CM-050, R&D Systems), hCEACAM-6(3934-CM-050, R&D Systems) or CEACAM-8 (9639-CM-050, R&D Systems) in PBS over night at 4° C. After washing with PBS/0.05% Tween 20 (PBST), the plates were blocked with PBST, 2% BSA for at least 30 minutes at room temperature before a second round of washing. […] After washing, plates were incubated with 50 μl detection antibody (0.5 μg/ml HRP conjugated goat anti human-kappa light chain, #STAR127P, AbD Serotec). Finally, a final round of washing was performed and bound complexes detected using SuperSignal Pico Luminescent as substrate and luminescence signals were measured using Fluostar Optima.

[2] = molecular target: T2, human CEACAM6, recombinant (R&D Systems …); test: as above
Method: as §1

[3] = molecular target: T3, human CEACAM1, recombinant (R&D Systems …); test: as above
Method: as §1

[4] = molecular target: T4, human CEACAM1 expressed on CHO cells; test: flow cytometry, transfected CHO cells, IgG1
Source text: Binding of the antibodies was detected using fluorochrome-conjugated anti-human IgG and analysed using flow cytometry.

[5] = molecular target: T5, human CEACAM5, recombinant (R&D Systems …); test: Octet BLI, IgG1 captured on AHC tips, CEACAM5-His in solution, 1:1 fit
Method: Kinetic measurements were performed in the Octet RED96 platform using several different setups. Monoclonal antibodies (listed in Table 9), serially diluted ½ starting at 100 nM, were captured to anti human IgG Fc Capture (AHC) Biosensor tips (Sartorius #18-5060). Human CEACAM5-His (R&D Systems #4128-CM-050) diluted in 1× kinetic buffer (Sartorius) at 100 nM was then added. Binding kinetics was studied in 1× kinetic buffer where association was allowed for 300 sec followed by dissociation for 600 sec. Sensor tips were regenerated with 10 mM Glycine pH 1.7. Data generated were referenced by subtracting blank or parallel buffer blank, the baseline was aligned to the y-axis, inter-step correction by alignment against dissociation was performed and the data was smoothed by Savitzky-Golay filter in the data analysis software (v9.0.0.14). The processed data was fitted using a 1:1 Langmuir binding model with R² or X² as a measurement of fitting accuracy.

[6] = molecular target: T5, human CEACAM5, recombinant (R&D Systems …); test: ELISA, antigen coated at 0.5 µg/mL, bsAb titrated, anti-human kappa-HRP, luminescence
Method: (§2) 96-well plates were coated with 0.5 μg/mL antigen, hCEACAM-1 (2244-CM-050, R&D Systems), hCEACAM-5 (4128-CM-050, R&D Systems), hCEACAM-6 (3934-CM-050, R&D Systems) or CEACAM-8 (9639-CM-050, R&D Systems) in PBS over night at 4° C. After washing in PBS/0.05% Tween 20 (PBST), the plates were blocked with PBST, 2% BSA for at least 30 minutes at room temperature before a second round of washing. RUBY bsAbs, diluted in PBST, 0.5% BSA, were then added and allowed to bind for at least 1 hour at room temperature. […] Finally, a final round of washing was performed and bound complexes detected using SuperSignal Pico Luminescent as substrate and luminescence signals were measured using Fluostar Optima.

[7] = molecular target: T6, biotinylated human CD40-mouse Fc (Ancell #504-030) (human, UniProt P25942 21-193, biotinylated (site not stated)); test: dual-target ELISA: hCEACAM-5 coated, bsAb titrated, detected with biotinylated hCD40-muIg and streptavidin-HRP, luminescence; signal needs both targets bound
T6 construct: Bought; also called hCD40-muIg; CD40mFc-biotin; not shown: mouse Ig Fc
T6 sequence (P25942 21-193): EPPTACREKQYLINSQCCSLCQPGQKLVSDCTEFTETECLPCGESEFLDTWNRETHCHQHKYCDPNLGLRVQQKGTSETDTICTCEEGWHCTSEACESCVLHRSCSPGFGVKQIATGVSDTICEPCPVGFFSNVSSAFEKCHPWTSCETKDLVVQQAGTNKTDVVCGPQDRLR
Method: as §2

[8] = molecular target: T5, human CEACAM5, recombinant (R&D Systems …); test: as above
Method: as §2

| binding result [1] | binding result [2] | binding result [3] | binding result [4] | Kd [5] [nM] | koff [5] [s⁻¹] | kon [5] [M⁻¹ s⁻¹] | EC50 (read off the curve) [6] [nM] | binding result [7] | EC50 (read off the curve) [8] [nM] | Binder |
| --- | --- | --- | --- | --- | --- | --- | --- | --- | --- | --- |
| no binding (tested: 0.4 µg/ml) | no binding (tested: 0.4 µg/ml) | no binding (tested: 0.4 µg/ml) | no binding (tested: 0.5 and 5 µg/ml) | 0.4 | 6e-05 | 100000 | – | – | – | AC_05064 (antibody, human IgG1, kappa, V domains shown) VH: not shown VL: DIQMTQSPSSLSASVGDRVTITCRASQSISSYLNWYQQKPGKAPKLLIYAASSLQSGVPSRFSGSGSGTDFTLTISSLQPEDFATYYCQQYPWYFPYTFGQGTKLEIKR |
| – | – | – | – | – | – | – | ~1 | binds | ~3 | Multi39 (bispecific antibody, Optimised RUBY format, CD40xCEACAM5; copies: 2 + 2 + 2) heavy 1: not shown light: not shown heavy 2: EVQLLESGGGLVQPGGSLRLSCAASGFTFYDHAMSWVREAPGKGLEWVSAISGSYGSTGYADSVKGRFTISRDNSKNTLYLQMNSLRAEDTAVYYCARWGGWAGDIDYWGQGTLVTVSSASTKGPSVFPLAPSSKSTSGGTAALGCLVKDYFPEPVTVSWNSGALTSGVHTFPAVLQSSGLYSLTSVVEVPSSSLGTQTYICNVNHKPSNTKVDKKVEPKSC |
| no binding (tested: 0.4 µg/ml) | no binding (tested: 0.4 µg/ml) | no binding (tested: 0.4 µg/ml) | no binding (tested: 0.5 and 5 µg/ml) | 20 | 0.002 | 100000 | – | – | – | AC_05061 (antibody, human IgG1, kappa, V domains shown) VH: not shown VL: DIQMTQSPSSLSASVGDRVTITCRASQSISSYLNWYQQKPGKAPKLLIYAASSLQSGVPSRFSGSGSGTDFTLTISSLQPEDFATYYCQQGAYVPYTFGQGTKLEIKR |
| no binding (tested: 0.4 µg/ml) | no binding (tested: 0.4 µg/ml) | no binding (tested: 0.4 µg/ml) | no binding (tested: 0.5 and 5 µg/ml) | 0.9 | 0.002 | 2e+06 | – | – | – | AC_05062 (antibody, human IgG1, kappa, V domains shown) VH: not shown VL: DIQMTQSPSSLSASVGDRVTITCRASQAISGYLNWYQQKPGKAPKLLIYSASSLQSGVPSRFSGSGSGTDFTLTISSLQPEDFATYYCQQSYSTPYTFGQGTKLEIKR |
| no binding (tested: 0.4 µg/ml) | no binding (tested: 0.4 µg/ml) | no binding (tested: 0.4 µg/ml) | no binding (tested: 0.5 and 5 µg/ml) | 6 | 0.002 | 400000 | – | – | – | AC_05060 (antibody, human IgG1, kappa, V domains shown) VH: EVQLLESGGGLVQPGGSLRLSCAASGFTFGSYYMSWVRQAPGKGLEWVSGISGYGYYTGYADSVKGRFTISRDNSKNTLYLQMNSLRAEDTAVYYCARHGYGVIDYWGQGTLVTVSS VL: DIQMTQSPSSLSASVGDRVTITCRASQSIRDYLNWYQQKPGKAPKLLIYAASSLQSGVPSRFSGSGSGTDFTLTISSLQPEDFATYYCQQGTFPFTFGQGTKLEIKR |
